Results on 4 molecules are retold here after patent US20190015483A1 (CSL BEHRING RECOMBINANT FACILITY, published 2019).

In assay [1] the target is T1, recombinant Factor VIII (CSL627, rVIII-SingleChain) (Homo sapiens (Human), UniProt P00451 20-2351).
T1 construct: also called FVIII
T1 sequence: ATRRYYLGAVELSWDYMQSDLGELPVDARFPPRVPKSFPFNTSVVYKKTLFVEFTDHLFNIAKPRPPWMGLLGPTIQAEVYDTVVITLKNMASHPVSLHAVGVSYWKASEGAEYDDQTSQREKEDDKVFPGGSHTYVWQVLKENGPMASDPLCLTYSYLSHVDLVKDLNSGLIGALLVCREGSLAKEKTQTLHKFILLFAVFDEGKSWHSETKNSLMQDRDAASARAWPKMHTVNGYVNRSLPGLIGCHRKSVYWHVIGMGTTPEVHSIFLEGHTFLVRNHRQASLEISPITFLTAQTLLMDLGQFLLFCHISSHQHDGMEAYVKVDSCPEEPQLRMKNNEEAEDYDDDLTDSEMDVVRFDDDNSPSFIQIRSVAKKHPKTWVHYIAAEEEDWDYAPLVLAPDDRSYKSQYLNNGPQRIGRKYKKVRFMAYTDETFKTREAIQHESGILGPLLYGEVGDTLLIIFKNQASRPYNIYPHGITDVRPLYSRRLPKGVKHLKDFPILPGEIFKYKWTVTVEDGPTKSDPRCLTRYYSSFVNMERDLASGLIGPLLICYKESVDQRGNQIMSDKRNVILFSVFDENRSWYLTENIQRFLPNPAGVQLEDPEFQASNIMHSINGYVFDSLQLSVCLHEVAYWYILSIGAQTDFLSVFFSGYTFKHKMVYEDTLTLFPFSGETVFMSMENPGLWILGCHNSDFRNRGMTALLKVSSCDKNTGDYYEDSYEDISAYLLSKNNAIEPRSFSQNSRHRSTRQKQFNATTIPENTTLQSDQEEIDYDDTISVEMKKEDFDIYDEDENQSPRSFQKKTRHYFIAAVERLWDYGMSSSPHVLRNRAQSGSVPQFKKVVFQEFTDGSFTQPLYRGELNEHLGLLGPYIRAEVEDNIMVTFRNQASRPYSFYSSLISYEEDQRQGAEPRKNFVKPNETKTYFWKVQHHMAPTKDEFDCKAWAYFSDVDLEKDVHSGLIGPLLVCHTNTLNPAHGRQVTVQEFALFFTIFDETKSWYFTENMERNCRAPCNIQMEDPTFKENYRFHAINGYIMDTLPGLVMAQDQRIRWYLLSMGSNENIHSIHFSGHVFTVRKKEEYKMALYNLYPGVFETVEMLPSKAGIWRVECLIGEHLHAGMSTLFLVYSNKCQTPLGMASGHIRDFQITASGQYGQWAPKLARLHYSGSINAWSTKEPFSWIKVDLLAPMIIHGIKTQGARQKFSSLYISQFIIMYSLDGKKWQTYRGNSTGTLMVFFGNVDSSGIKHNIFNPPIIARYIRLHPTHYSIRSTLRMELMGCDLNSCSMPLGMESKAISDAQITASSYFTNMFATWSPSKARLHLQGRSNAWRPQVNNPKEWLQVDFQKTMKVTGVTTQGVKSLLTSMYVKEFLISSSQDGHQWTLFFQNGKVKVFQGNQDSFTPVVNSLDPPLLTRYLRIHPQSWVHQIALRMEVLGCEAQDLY
Nature of the assay: SPR, anti-His capture, FVIII injected, pH 5.5.

Assay [2] addresses T2, recombinant Factor VIII (CSL627, rVIII-SingleChain) (Homo sapiens (Human), UniProt P00451 20-2351).
T2 construct: also called FVIII
T2 sequence: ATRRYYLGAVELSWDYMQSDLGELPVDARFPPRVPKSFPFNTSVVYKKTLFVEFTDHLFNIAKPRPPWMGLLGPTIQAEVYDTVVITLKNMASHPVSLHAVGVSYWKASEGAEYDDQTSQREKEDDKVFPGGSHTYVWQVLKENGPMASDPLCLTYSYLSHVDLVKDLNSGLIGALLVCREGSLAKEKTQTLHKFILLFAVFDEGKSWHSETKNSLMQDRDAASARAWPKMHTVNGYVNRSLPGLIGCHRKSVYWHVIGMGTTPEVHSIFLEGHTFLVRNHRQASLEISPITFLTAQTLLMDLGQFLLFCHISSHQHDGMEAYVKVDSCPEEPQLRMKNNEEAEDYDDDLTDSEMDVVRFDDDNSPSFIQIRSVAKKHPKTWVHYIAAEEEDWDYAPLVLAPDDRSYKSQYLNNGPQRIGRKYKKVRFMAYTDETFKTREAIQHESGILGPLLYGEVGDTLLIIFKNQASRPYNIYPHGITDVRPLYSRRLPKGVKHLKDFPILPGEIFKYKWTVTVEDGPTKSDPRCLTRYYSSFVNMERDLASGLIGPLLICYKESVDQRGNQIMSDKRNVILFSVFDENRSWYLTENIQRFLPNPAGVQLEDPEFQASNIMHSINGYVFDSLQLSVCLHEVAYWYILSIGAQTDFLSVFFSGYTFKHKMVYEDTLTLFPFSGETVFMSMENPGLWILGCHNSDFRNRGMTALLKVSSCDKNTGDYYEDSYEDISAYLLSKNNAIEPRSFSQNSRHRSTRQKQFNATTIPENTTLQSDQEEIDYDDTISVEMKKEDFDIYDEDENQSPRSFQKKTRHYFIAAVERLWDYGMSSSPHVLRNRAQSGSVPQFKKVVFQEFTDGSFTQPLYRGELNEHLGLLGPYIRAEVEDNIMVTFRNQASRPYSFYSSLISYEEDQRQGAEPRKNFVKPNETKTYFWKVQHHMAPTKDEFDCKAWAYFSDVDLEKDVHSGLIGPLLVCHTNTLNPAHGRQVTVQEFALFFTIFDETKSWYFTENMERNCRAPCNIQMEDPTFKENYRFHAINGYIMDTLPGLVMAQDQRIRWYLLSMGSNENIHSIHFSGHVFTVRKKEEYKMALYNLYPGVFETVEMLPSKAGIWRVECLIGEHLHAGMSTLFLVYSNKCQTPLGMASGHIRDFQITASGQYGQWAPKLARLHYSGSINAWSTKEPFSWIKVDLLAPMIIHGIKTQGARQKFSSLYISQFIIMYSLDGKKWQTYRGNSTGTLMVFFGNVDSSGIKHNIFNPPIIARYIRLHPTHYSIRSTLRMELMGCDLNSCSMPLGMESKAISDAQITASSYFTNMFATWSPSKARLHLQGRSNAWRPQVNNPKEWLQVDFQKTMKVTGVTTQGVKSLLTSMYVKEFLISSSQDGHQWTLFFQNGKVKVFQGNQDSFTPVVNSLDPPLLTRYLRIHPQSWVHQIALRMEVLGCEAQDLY
Nature of the assay: SPR, anti-His capture. The method, then: Binding kinetics were investigated by surface plasmon resonance using a Biacore 4000 biosensor at 37° C. Each mutant was captured from cell culture medium to a density of 40-150 RU on a CM-5 sensor chip pre-immobilised with anti-His antibody (14,000 RU). In an initial screening study, FVIII was injected over the captured mutants for 5 minutes at 1 nM and dissociation monitored for 5 minutes.
All sensorgrams were double referenced by subtraction of signals from a reference spot (containing only immobilised anti His antibody) and from a blank injection. Binding kinetics were determined by fitting the double referenced sensorgrams to a 1:1 kinetic model.

B1: Hu-vWF[764-1270]-8His S764P-S766W (other)
chain: PLWCRPPMVKLVCPADNLRAEGLECTKTCQNYDLECMSMGCVSGCLCPPGMVRHENRCVALERCPCFHQGKEYAPGETVKIGCNTCVCRDRKWNCTDHVCDATCSTIGMAHYLTFDGLKYLFPGECQYVLVQDYCGSNPGTFRILVGNKGCSHPSVKCKKRVTILVEGGEIELFDGEVNVKRPMKDETHFEVVESGRYIILLLGKALSVVWDRHLSISVVLKQTYQEKVCGLCGNFDGIQNNDLTSSNLQVEEDPVDFGNSWKVSSQCADTRKVPLDSSPATCHNNIMKQTMVDSSCRILTSDVFQDCNKLVDPEPYLDVCIYDTCSCESIGDCACFCDTIAAYAHVCAQHGKVVTWRTATLCPQSCEERNLRENGYECEWRYNSCAPACQVTCQHPEPLACPVQCVEGCHAHCPPGKILDELLQTCVDPEDCPVCEVAGRRFASGKKVTLNPSDPEHCQICHCDVVNLTCEACQEPGGLVVPPTDAPVSPTTLYVEDISEPPLHDFHHHHHHHH
A word on the Kd: it is the equilibrium constant for the complex coming apart. Usually koff stands for the first-order rate constant of dissociation. The kon is the second-order rate constant of association. With B1, in assay [1], the Kd was 172 pM, the koff was 4.75e-05 s⁻¹ and the kon worked out at 277000 M⁻¹ s⁻¹.

B2: Hu-vWF[764-1270]-8His S764P-S766M (other)
chain: PLMCRPPMVKLVCPADNLRAEGLECTKTCQNYDLECMSMGCVSGCLCPPGMVRHENRCVALERCPCFHQGKEYAPGETVKIGCNTCVCRDRKWNCTDHVCDATCSTIGMAHYLTFDGLKYLFPGECQYVLVQDYCGSNPGTFRILVGNKGCSHPSVKCKKRVTILVEGGEIELFDGEVNVKRPMKDETHFEVVESGRYIILLLGKALSVVWDRHLSISVVLKQTYQEKVCGLCGNFDGIQNNDLTSSNLQVEEDPVDFGNSWKVSSQCADTRKVPLDSSPATCHNNIMKQTMVDSSCRILTSDVFQDCNKLVDPEPYLDVCIYDTCSCESIGDCACFCDTIAAYAHVCAQHGKVVTWRTATLCPQSCEERNLRENGYECEWRYNSCAPACQVTCQHPEPLACPVQCVEGCHAHCPPGKILDELLQTCVDPEDCPVCEVAGRRFASGKKVTLNPSDPEHCQICHCDVVNLTCEACQEPGGLVVPPTDAPVSPTTLYVEDISEPPLHDFHHHHHHHH
With B2, in assay [1], the Kd amounted to 292 pM, the koff was 9.16e-05 s⁻¹ and the kon worked out at 314000 M⁻¹ s⁻¹.

B3: Hu-vWF[764-1270]-8His S764Y/S766Y (other)
chain: YLYCRPPMVKLVCPADNLRAEGLECTKTCQNYDLECMSMGCVSGCLCPPGMVRHENRCVALERCPCFHQGKEYAPGETVKIGCNTCVCRDRKWNCTDHVCDATCSTIGMAHYLTFDGLKYLFPGECQYVLVQDYCGSNPGTFRILVGNKGCSHPSVKCKKRVTILVEGGEIELFDGEVNVKRPMKDETHFEVVESGRYIILLLGKALSVVWDRHLSISVVLKQTYQEKVCGLCGNFDGIQNNDLTSSNLQVEEDPVDFGNSWKVSSQCADTRKVPLDSSPATCHNNIMKQTMVDSSCRILTSDVFQDCNKLVDPEPYLDVCIYDTCSCESIGDCACFCDTIAAYAHVCAQHGKVVTWRTATLCPQSCEERNLRENGYECEWRYNSCAPACQVTCQHPEPLACPVQCVEGCHAHCPPGKILDELLQTCVDPEDCPVCEVAGRRFASGKKVTLNPSDPEHCQICHCDVVNLTCEACQEPGGLVVPPTDAPVSPTTLYVEDISEPPLHDFHHHHHHHH
For B3, in assay [2], the Kd came to 2.47 pM, the koff is 7.88e-05 s⁻¹ and the kon came to 3.19e+07 M⁻¹ s⁻¹.

B4: Hu-vWF[764-1270]-8His S764W/S766Y (other)
chain: WLYCRPPMVKLVCPADNLRAEGLECTKTCQNYDLECMSMGCVSGCLCPPGMVRHENRCVALERCPCFHQGKEYAPGETVKIGCNTCVCRDRKWNCTDHVCDATCSTIGMAHYLTFDGLKYLFPGECQYVLVQDYCGSNPGTFRILVGNKGCSHPSVKCKKRVTILVEGGEIELFDGEVNVKRPMKDETHFEVVESGRYIILLLGKALSVVWDRHLSISVVLKQTYQEKVCGLCGNFDGIQNNDLTSSNLQVEEDPVDFGNSWKVSSQCADTRKVPLDSSPATCHNNIMKQTMVDSSCRILTSDVFQDCNKLVDPEPYLDVCIYDTCSCESIGDCACFCDTIAAYAHVCAQHGKVVTWRTATLCPQSCEERNLRENGYECEWRYNSCAPACQVTCQHPEPLACPVQCVEGCHAHCPPGKILDELLQTCVDPEDCPVCEVAGRRFASGKKVTLNPSDPEHCQICHCDVVNLTCEACQEPGGLVVPPTDAPVSPTTLYVEDISEPPLHDFHHHHHHHH
Turning to B4, in assay [2], the Kd worked out at 10.9 pM, the koff was found to be 9.67e-05 s⁻¹ and the kon was 8.88e+06 M⁻¹ s⁻¹.
